The record followed here is patent US20160272683A1 (Novo Nordisk, published 2016).

The labels stand for the following.
B1: [N-terminal(C18 diacid), 5V, 9V]mimylin (peptide)
peptide: {C18 diacid}-EASEVSTAVLGRLSAELHELATLPRTETGPESP-NH2
SMILES: CC(C)C[C@H](NC(=O)[C@H](CCC(=O)O)NC(=O)[C@H](Cc1c[nH]cn1)NC(=O)[C@H](CC(C)C)NC(=O)[C@H](CCC(=O)O)NC(=O)[C@H](C)NC(=O)[C@H](CO)NC(=O)[C@H](CC(C)C)NC(=O)[C@H](CCCNC(=N)N)NC(=O)CNC(=O)[C@H](CC(C)C)NC(=O)[C@@H](NC(=O)[C@H](C)NC(=O)[C@@H](NC(=O)[C@H](CO)NC(=O)[C@@H](NC(=O)[C@H](CCC(=O)O)NC(=O)[C@H](CO)NC(=O)[C@H](C)NC(=O)[C@H](CCC(=O)O)NC(=O)CCCCCCCCCCCCCCCCC(=O)O)C(C)C)[C@@H](C)O)C(C)C)C(=O)N[C@@H](C)C(=O)N[C@H](C(=O)N[C@@H](CC(C)C)C(=O)N1CCC[C@H]1C(=O)N[C@@H](CCCNC(=N)N)C(=O)N[C@H](C(=O)N[C@@H](CCC(=O)O)C(=O)N[C@H](C(=O)NCC(=O)N1CCC[C@H]1C(=O)N[C@@H](CCC(=O)O)C(=O)N[C@@H](CO)C(=O)N1CCC[C@H]1C(N)=O)[C@@H](C)O)[C@@H](C)O)[C@@H](C)O
notes: also called Ex. #24
B2: [N-terminal(C18 diacid), 9V, 18A]mimylin (peptide)
peptide: {C18 diacid}-EASELSTAVLGRLSAELAELATLPRTETGPESP-NH2
SMILES: CC(C)C[C@H](NC(=O)[C@H](CCC(=O)O)NC(=O)[C@H](C)NC(=O)[C@H](CO)NC(=O)[C@H](CC(C)C)NC(=O)[C@H](CCCNC(=N)N)NC(=O)CNC(=O)[C@H](CC(C)C)NC(=O)[C@@H](NC(=O)[C@H](C)NC(=O)[C@@H](NC(=O)[C@H](CO)NC(=O)[C@H](CC(C)C)NC(=O)[C@H](CCC(=O)O)NC(=O)[C@H](CO)NC(=O)[C@H](C)NC(=O)[C@H](CCC(=O)O)NC(=O)CCCCCCCCCCCCCCCCC(=O)O)[C@@H](C)O)C(C)C)C(=O)N[C@@H](C)C(=O)N[C@@H](CCC(=O)O)C(=O)N[C@@H](CC(C)C)C(=O)N[C@@H](C)C(=O)N[C@H](C(=O)N[C@@H](CC(C)C)C(=O)N1CCC[C@H]1C(=O)N[C@@H](CCCNC(=N)N)C(=O)N[C@H](C(=O)N[C@@H](CCC(=O)O)C(=O)N[C@H](C(=O)NCC(=O)N1CCC[C@H]1C(=O)N[C@@H](CCC(=O)O)C(=O)N[C@@H](CO)C(=O)N1CCC[C@H]1C(N)=O)[C@@H](C)O)[C@@H](C)O)[C@@H](C)O
notes: also called Ex. #33
B3: [N-terminal(C18 diacid), 9V, 10I]mimylin (peptide)
peptide: {C18 diacid}-EASELSTAVIGRLSAELHELATLPRTETGPESP-NH2
SMILES: CC[C@H](C)[C@H](NC(=O)[C@@H](NC(=O)[C@H](C)NC(=O)[C@@H](NC(=O)[C@H](CO)NC(=O)[C@H](CC(C)C)NC(=O)[C@H](CCC(=O)O)NC(=O)[C@H](CO)NC(=O)[C@H](C)NC(=O)[C@H](CCC(=O)O)NC(=O)CCCCCCCCCCCCCCCCC(=O)O)[C@@H](C)O)C(C)C)C(=O)NCC(=O)N[C@@H](CCCNC(=N)N)C(=O)N[C@@H](CC(C)C)C(=O)N[C@@H](CO)C(=O)N[C@@H](C)C(=O)N[C@@H](CCC(=O)O)C(=O)N[C@@H](CC(C)C)C(=O)N[C@@H](Cc1c[nH]cn1)C(=O)N[C@@H](CCC(=O)O)C(=O)N[C@@H](CC(C)C)C(=O)N[C@@H](C)C(=O)N[C@H](C(=O)N[C@@H](CC(C)C)C(=O)N1CCC[C@H]1C(=O)N[C@@H](CCCNC(=N)N)C(=O)N[C@H](C(=O)N[C@@H](CCC(=O)O)C(=O)N[C@H](C(=O)NCC(=O)N1CCC[C@H]1C(=O)N[C@@H](CCC(=O)O)C(=O)N[C@@H](CO)C(=O)N1CCC[C@H]1C(N)=O)[C@@H](C)O)[C@@H](C)O)[C@@H](C)O
notes: also called Ex. #26
B4: [N-terminal(C18 diacid), 9L, 10A]mimylin (peptide)
peptide: {C18 diacid}-EASELSTALAGRLSAELHELATLPRTETGPESP-NH2
SMILES: CC(C)C[C@H](NC(=O)[C@H](C)NC(=O)[C@@H](NC(=O)[C@H](CO)NC(=O)[C@H](CC(C)C)NC(=O)[C@H](CCC(=O)O)NC(=O)[C@H](CO)NC(=O)[C@H](C)NC(=O)[C@H](CCC(=O)O)NC(=O)CCCCCCCCCCCCCCCCC(=O)O)[C@@H](C)O)C(=O)N[C@@H](C)C(=O)NCC(=O)N[C@@H](CCCNC(=N)N)C(=O)N[C@@H](CC(C)C)C(=O)N[C@@H](CO)C(=O)N[C@@H](C)C(=O)N[C@@H](CCC(=O)O)C(=O)N[C@@H](CC(C)C)C(=O)N[C@@H](Cc1c[nH]cn1)C(=O)N[C@@H](CCC(=O)O)C(=O)N[C@@H](CC(C)C)C(=O)N[C@@H](C)C(=O)N[C@H](C(=O)N[C@@H](CC(C)C)C(=O)N1CCC[C@H]1C(=O)N[C@@H](CCCNC(=N)N)C(=O)N[C@H](C(=O)N[C@@H](CCC(=O)O)C(=O)N[C@H](C(=O)NCC(=O)N1CCC[C@H]1C(=O)N[C@@H](CCC(=O)O)C(=O)N[C@@H](CO)C(=O)N1CCC[C@H]1C(N)=O)[C@@H](C)O)[C@@H](C)O)[C@@H](C)O
notes: also called Ex. #27
B5: [N-terminal(C18 diacid), 9I]mimylin (peptide)
peptide: {C18 diacid}-EASELSTAILGRLSAELHELATLPRTETGPESP-NH2
SMILES: CC[C@H](C)[C@H](NC(=O)[C@H](C)NC(=O)[C@@H](NC(=O)[C@H](CO)NC(=O)[C@H](CC(C)C)NC(=O)[C@H](CCC(=O)O)NC(=O)[C@H](CO)NC(=O)[C@H](C)NC(=O)[C@H](CCC(=O)O)NC(=O)CCCCCCCCCCCCCCCCC(=O)O)[C@@H](C)O)C(=O)N[C@@H](CC(C)C)C(=O)NCC(=O)N[C@@H](CCCNC(=N)N)C(=O)N[C@@H](CC(C)C)C(=O)N[C@@H](CO)C(=O)N[C@@H](C)C(=O)N[C@@H](CCC(=O)O)C(=O)N[C@@H](CC(C)C)C(=O)N[C@@H](Cc1c[nH]cn1)C(=O)N[C@@H](CCC(=O)O)C(=O)N[C@@H](CC(C)C)C(=O)N[C@@H](C)C(=O)N[C@H](C(=O)N[C@@H](CC(C)C)C(=O)N1CCC[C@H]1C(=O)N[C@@H](CCCNC(=N)N)C(=O)N[C@H](C(=O)N[C@@H](CCC(=O)O)C(=O)N[C@H](C(=O)NCC(=O)N1CCC[C@H]1C(=O)N[C@@H](CCC(=O)O)C(=O)N[C@@H](CO)C(=O)N1CCC[C@H]1C(N)=O)[C@@H](C)O)[C@@H](C)O)[C@@H](C)O
notes: also called Ex. #10
B6: [N-terminal(C18 diacid), 6H]mimylin (peptide)
peptide: {C18 diacid}-EASELHTAALGRLSAELHELATLPRTETGPESP-NH2
SMILES: CC(C)C[C@H](NC(=O)[C@H](C)NC(=O)[C@H](C)NC(=O)[C@@H](NC(=O)[C@H](Cc1c[nH]cn1)NC(=O)[C@H](CC(C)C)NC(=O)[C@H](CCC(=O)O)NC(=O)[C@H](CO)NC(=O)[C@H](C)NC(=O)[C@H](CCC(=O)O)NC(=O)CCCCCCCCCCCCCCCCC(=O)O)[C@@H](C)O)C(=O)NCC(=O)N[C@@H](CCCNC(=N)N)C(=O)N[C@@H](CC(C)C)C(=O)N[C@@H](CO)C(=O)N[C@@H](C)C(=O)N[C@@H](CCC(=O)O)C(=O)N[C@@H](CC(C)C)C(=O)N[C@@H](Cc1c[nH]cn1)C(=O)N[C@@H](CCC(=O)O)C(=O)N[C@@H](CC(C)C)C(=O)N[C@@H](C)C(=O)N[C@H](C(=O)N[C@@H](CC(C)C)C(=O)N1CCC[C@H]1C(=O)N[C@@H](CCCNC(=N)N)C(=O)N[C@H](C(=O)N[C@@H](CCC(=O)O)C(=O)N[C@H](C(=O)NCC(=O)N1CCC[C@H]1C(=O)N[C@@H](CCC(=O)O)C(=O)N[C@@H](CO)C(=O)N1CCC[C@H]1C(N)=O)[C@@H](C)O)[C@@H](C)O)[C@@H](C)O
notes: also called Ex. #16
B7: [N-terminal(C18 diacid), 8L]mimylin (peptide)
peptide: {C18 diacid}-EASELSTLALGRLSAELHELATLPRTETGPESP-NH2
SMILES: CC(C)C[C@H](NC(=O)[C@H](C)NC(=O)[C@H](CC(C)C)NC(=O)[C@@H](NC(=O)[C@H](CO)NC(=O)[C@H](CC(C)C)NC(=O)[C@H](CCC(=O)O)NC(=O)[C@H](CO)NC(=O)[C@H](C)NC(=O)[C@H](CCC(=O)O)NC(=O)CCCCCCCCCCCCCCCCC(=O)O)[C@@H](C)O)C(=O)NCC(=O)N[C@@H](CCCNC(=N)N)C(=O)N[C@@H](CC(C)C)C(=O)N[C@@H](CO)C(=O)N[C@@H](C)C(=O)N[C@@H](CCC(=O)O)C(=O)N[C@@H](CC(C)C)C(=O)N[C@@H](Cc1c[nH]cn1)C(=O)N[C@@H](CCC(=O)O)C(=O)N[C@@H](CC(C)C)C(=O)N[C@@H](C)C(=O)N[C@H](C(=O)N[C@@H](CC(C)C)C(=O)N1CCC[C@H]1C(=O)N[C@@H](CCCNC(=N)N)C(=O)N[C@H](C(=O)N[C@@H](CCC(=O)O)C(=O)N[C@H](C(=O)NCC(=O)N1CCC[C@H]1C(=O)N[C@@H](CCC(=O)O)C(=O)N[C@@H](CO)C(=O)N1CCC[C@H]1C(N)=O)[C@@H](C)O)[C@@H](C)O)[C@@H](C)O
notes: also called Ex. #15

* marks the point of attachment. C18 diacid = O=C(O)CCCCCCCCCCCCCCCCC(=O)*

The target of this assay is T1, human calcitonin receptor (human, UniProt P30988 25-474).
T1 construct: whole, on cells; also called hCT-R; hCTR
T1 sequence (looked up): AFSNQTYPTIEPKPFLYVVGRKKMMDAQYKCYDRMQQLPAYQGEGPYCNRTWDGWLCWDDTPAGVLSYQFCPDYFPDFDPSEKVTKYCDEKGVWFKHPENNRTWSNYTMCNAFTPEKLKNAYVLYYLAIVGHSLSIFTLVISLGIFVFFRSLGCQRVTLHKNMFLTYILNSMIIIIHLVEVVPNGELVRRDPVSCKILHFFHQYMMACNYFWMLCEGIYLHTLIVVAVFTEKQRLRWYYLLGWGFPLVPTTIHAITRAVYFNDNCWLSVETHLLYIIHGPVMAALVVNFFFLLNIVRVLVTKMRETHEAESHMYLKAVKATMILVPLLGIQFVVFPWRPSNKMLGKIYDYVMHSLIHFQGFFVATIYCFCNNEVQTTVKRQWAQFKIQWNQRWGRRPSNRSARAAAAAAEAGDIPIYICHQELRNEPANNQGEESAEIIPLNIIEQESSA
The assay can be described thus: whole-cell competition vs 125I-human calcitonin (Assay VIIa). As for the experimental part:
The binding assay was performed using a BHK tk'ts 13 cell line was stably transfected with the human calcitonin receptor, and a CRE-responsive luciferase reporter gene.
The day before the assay the cells were Seeded into Poly-D-Lysin coated 384W Opaque White, BD BioCoat plates (10000 cells/well) and Incubated overnight at 37° C., 5% CO2, 95% humidity. […] The morning after, the plates were washed three times in HBSS (4° C.), and lyzed in Lysis buffer (0.1 M NaOH), 1% SDS. Scintillation cocktail (MicroScint40®) was added and the plates were shaken at 500 rpm for a short period. The plate was incubated at room temperature in the dark for 1 hour and Read on a TopCounter™ (Packard). The IC₅₀ was calculated using (one site binding competition analysis) GraphPad Prism5 as a measure of receptor affinity.
As usually defined, the IC50 is the concentration that inhibits the measured activity by half. Take B1: the IC50 turned out to be 0.749 nM.

On to B2, for which the IC50 was found to be 0.752 nM.

Regarding B3, the 50% inhibitory concentration (IC50) is 0.57 nM.

For the molecule B4, the IC50 amounted to 0.219 nM.

Consider B5, for which the IC50 is 0.523 nM.

With B6, the half-maximal inhibitory concentration (IC50) worked out at 0.981 nM.

Take B7: the IC50 is 0.473 nM.
